Experimental data: patent US8008547B2, “Glyphosate-N-acetyltransferase (GAT) genes” (E.I. duPont de Nemours, priority 2000, dated 2011)

Assay: Standard protocol for determination of kcat and KM (continuous spectrophotometric assay, Acetyl CoA hydrolysis at 235 nm)
Type: biochemical
Conditions: purified protein, about 23° C., 0.2 mM acetyl CoA; for Kcat: 20 mM HEPES pH 6.8, 10% ethylene glycol; for Km: pH 6.8, glyphosate 0.125 to 10 mM
Procedure: KM was calculated from the initial reaction rates obtained from concentrations of glyphosate ranging from 0.125 to 10 mM, using the Lineweaver-Burke transformation of the Michaelis-Menten equation. kcat/KM was determined by dividing the value determined for kcat by the value determined for KM.
Using this methodology, kinetic parameters for a number of GAT polypeptides exemplified herein were determined. For example, the kcat, KM and kcat/KM for the GAT polypeptide corresponding to SEQ ID NO:445 have been determined to be 322 min^−1, 0.5 mM and 660 mM^−1 min^−1, respectively, using the assay conditions described above. The kcat, KM and kcat/KM for the GAT polypeptide corresponding to SEQ ID NO:457 have been determined to be 118 min^−1, 0.1 mM and 1184 mM^−1 min^−1, respectively, using the assay conditions described above. The kcat, KM and kcat/KM for the GAT polypeptide corresponding to SEQ ID NO:300 have been determined to be 296 min^−1, 0.65 mM and 456 mM^−1 min^−1, respectively, using the assay conditions described above. One of skill in the art can use these numbers to confirm that a GAT activity assay is generating kinetic parameters for a GAT suitable for comparison with the values given herein. For example, the conditions used to compare the activity of GATs should yield the same kinetic constants for SEQ ID NO: 300, 445 and 457 (within normal experimental variance) as those reported herein, when the conditions are used to compare a test GAT with the GAT polypeptides exemplified herein. Kinetic parameters for a number of GAT polypeptide variants were determined according to this methodology and are provided in Table 3.

Row | Molecule | Kcat | Km
1 | SEQ ID NO: 370: GAT polypeptide (protein, 4B_17A1, GAT polypeptide) MIEVKPINAEDTYEIRHRILRPNQPLEACKYETDLLGGTFHLGGYYRGKLISIASFHQAEHPELEGQKQYQLRGMATLEEYREQKAGSTLIRHAEELLRKKGADLLWCNARTSASGYYEKLGFSEQGEVYDIPPIGPHILMYKKLT | 0.318 s⁻¹ | 1100 µM
2 | SEQ ID NO: 373: GAT polypeptide (protein, 4B_1G4, GAT polypeptide) MIEVKPINAEDTYEIRHRILRPNQPLEACKYETDLLGGAFHLGGYYRGKLISIASFHQSEHPELEGQKQYQLRGMATLEGYRELKAGSTLIRHAEELLRKKGADLLWCNARISASGYYKKLGFSEQGEVYDIPPIGPHILMYKKLT | 0.0617 s⁻¹ | 1000 µM
3 | SEQ ID NO: 376: GAT polypeptide (protein, 4B_2H8, GAT polypeptide) MIEAKPINAEDTYEIRHRILRPNQPLEACKYETDLLGGTFHLGGYYRGKLISIASFHQAEHSELEGQKQYQLRGMATLEGYREQKAGSTLIRHAEELLRKKGADLLWCNARTSASGYYKKLGFSEQGEVYDIPPIGPHILMYKKLT | 0.638 s⁻¹ | 1200 µM
4 | SEQ ID NO: 377: GAT polypeptide (protein, 4B_6D8, GAT polypeptide) MIEVKPINAEDTYEIRHRILRPNQPLEACKYETDLLGGTFHLGGYYRGKLISIASFHQAEHSELEGQKQYQLRGMATLEGYREQKAGSTLIRHAEELLRKKGADLLWCNARTSASGYYKKLGFSEHGEVYDIPPIGPHILMYKKLT | 0.378 s⁻¹ | 1500 µM
5 | SEQ ID NO: 379: GAT polypeptide (protein, 4C_8C9, GAT polypeptide) MIEVKPINAEDTYEIRHRILRPNQPLEACMYETDLLRGAFHLGGYYRGKLISIASFHQAEHPELEGQKQYQLRGMATLEGYREQKAGSTLIRHAEELLRKKGADLLWCNARTSASGYYEKLGFSEQGEVYDIPPIGPHILMYKKLT | 0.15 s⁻¹ | 600 µM
6 | SEQ ID NO: 268: GAT polypeptide (protein, CHIMERA, GAT polypeptide) MIEVKPINAEDTYEIRHRILRPNQPLEACMYETDLLRGAFHLGGYYRGKLISIASFHQAEHSELEGQKQYQLRGMATLEGYREQKAGSTLIRHAEELLRKKGADLLWCNARTSASGYYKKLGFSEQGEVYDTPPVGPHILMYKKLT | 2.59 s⁻¹ | 1300 µM
7 | SEQ ID NO: 269: GAT polypeptide (protein, 10_12D7, GAT polypeptide) MIEVKPINAEDTYEIRHRILRPNQPLEACKYETDLLGGTLHLGGYYRGKLISIASFHQAEHPELEGQKQYQLRGMATLEEYREQKAGSTLIRHAEELLRKKGADLLWCNARTSASGYYKKLGFSEQGEVYDIPPTGPHILMYKKLT | 1.29 s⁻¹ | 1800 µM
8 | SEQ ID NO: 378: GAT polypeptide (protein, 4B_7E8, GAT polypeptide) MIEVKPINAEDTYEIRHRILRPNQPLEACMYETDLLGGTFHLGGYYRGKLISIASFHQAEHSELEGQKQYQLRGMATLEGYREQKAGSTLIRHAEELLRKKGADLLWCNARTSVSGYYKKLGFSEQGEVYDIPPIGPHILMYKKLT | 0.342 s⁻¹ | 1200 µM
9 | SEQ ID NO: 371: GAT polypeptide (protein, 4B_18F11, GAT polypeptide) MIEVNPINAEDTYEIRHRILRPNQPLEACMYETDLLGGTSHLGGYYRGKLISIASFHNAEHSELDGQKQYQLRGMATLEGYREQKAGSTLIRHAEELLRKKGADLLWCNARTSVSGYYEKLGFSEQGEVYDIPPIGPHISMYKKLT | 0.243 s⁻¹ | 1700 µM
10 | SEQ ID NO: 372: GAT polypeptide (protein, 4B_19C8, GAT polypeptide) MIEVKPINAEDTYEIRHRILRPNQPLEACKYETDLLGGTFHLGGYYRGKLISIASFHQAEHPELEGQKQYQLRGMATLEGYREQKAGSTLIRHAEELLRKKGADLLWCNARTSASGYYKKLGFSEQGGVYDIPPIGPHILMYKKLA | 0.265 s⁻¹ | 1200 µM
11 | SEQ ID NO: 382: GAT polypeptide (protein, 6_15G7, GAT polypeptide) MIEVKPINAEDTYEIRHRILRPNQPLEACKYETDLLGGTFHLGGYYRGKLISIASFHQAEHSELEGQKQYQLRGMATLEGYREQKAGSTLIRHAEELLRKKGADLLWCNARTSASGYYKKLGFSEQGEVYDIPPVGPHILMYKKLT | 0.807 s⁻¹ | 1300 µM
12 | SEQ ID NO: 381: GAT polypeptide (protein, 6_14D10, GAT polypeptide) MIEVKPINAEDTYEIRHRILRPNQPLEACMYETDLLGGTFHLGGYYRGKLISIASFHQAEHSELEGHKQYQLRGMATLEEYREQKAGSTLIRHAEELLRKKGADLLWCNARTSASGYYKKLGFSEQGGVYDIPPVGPHILMYKKLT | 0.703 s⁻¹ | 1500 µM
13 | SEQ ID NO: 386: GAT polypeptide (protein, 6_18C7, GAT polypeptide) MIEVKPINAEDTYEIRHRILRPNQPLEACRYETDLLGGTFHLGGYYRGKLISIASFHQAEHPELEGQKQYQLRGMATLEGYREQKAGSTLIRHAEELLRKKGADLLWCNARISASGYYKKLGFSEQGEVYDIPPVGPHILMYKKLT | 0.537 s⁻¹ | 1200 µM
14 | SEQ ID NO: 387: GAT polypeptide (protein, X: residue not identified in the source; ends and bridges not checked, GAT polypeptide) MIEVKPINAEDTYEIRXRILRPNQPLEACMYETDLLGGTFHLGGYYRGKLISIASFHQAEHPELEGQKQYQLRGMATLEGYREQKAGSTLIRHAEELLRKKGADLLWCNARTSASGYYKKLGFSEQGGVYDIPPVGPHILMYKKLT | 0.717 s⁻¹ | 1200 µM
15 | SEQ ID NO: 374: GAT polypeptide (protein, 4B_21C6, GAT polypeptide) MIEVKPINAEDTYEIRHRILRPNQPLEACMYETDLLGGTFHLGGYYRGKLISIASFHQAEHSELEGQKQYQLRGMATLEEYREQKAGSTLIRHAEELLRKKGADLLWCNARISASGYYKKLGFSEQGGVYDIPPIGPHILMYKKLT | 0.197 s⁻¹ | 800 µM
16 | SEQ ID NO: 383: GAT polypeptide (protein, 6_16A5, GAT polypeptide) MIEVKPINAEDTYEIRHRILRPNQPLEACKYETDLLGGTFHLGGYYRGKLISIASFHQAEHSELEGQKQYQLRGMATLEGYREQKAGSTLIRHAEELLRKKGADLLWCNARTSASGYYKKLGFSEQGGVYDIPPVGPHILMYKKLT | 0.73 s⁻¹ | 1100 µM
17 | SEQ ID NO: 385: GAT polypeptide (protein, 6_17C5, GAT polypeptide) MIEVKPINAEDTYEIRHRILRPNQPLEACKYEADLLGGTFHLGGYYRGKLISIASFHQAEHPELEGQKQYQLRGMATLEGNREQKAGSTLIRHAEELLRKKGADLLWCNARTSASGYYKKLGFSEQGEVYDVPPIGPHILMYKKLT | 0.587 s⁻¹ | 1300 µM
18 | SEQ ID NO: 380: GAT polypeptide (protein, 4H1, GAT polypeptide) MIEVKPINAEDTYEIRHRILRPNQPLEACMYETDLLGGAFHLGGYYQGKLISIASFHQAVHSELEGQKQYQLRGMATLEGYREQKAGSTLIRHAEELLRKKGADLLWCNARTSVSGYYKKLGFSEQGGVYDIPPIGPHILMYKKLT | 0.0217 s⁻¹ | 1400 µM
19 | SEQ ID NO: 388: GAT polypeptide (protein, 6_19A10, GAT polypeptide) MIEAKPINAEDTYEIRHRILRPNQPLEACMYETDLLGGTFHLGGYYRGKLISIASFHQAEHPELEGQKQYQLRGMATLEGYREQKAGSTLIRHAEELLRKKGADLLWCNARTSASGYYKKLGFSEQGEVYDIPPTGPHILMYKKLT | 1.45 s⁻¹ | 1900 µM
20 | SEQ ID NO: 384: GAT polypeptide (protein, 6_16F5, GAT polypeptide) MIEVKPINAEDTYEIRHRILRPNQPLEACMYETDLLGGTFHLGGYYRGKLISIASFHQAVHSELEGQKQYQLRGMATLEGYREQKAGSTLIRHAEELLRKKGADLLWCNARTSASGYYKKLGFSEQGGVYDIPPVGPHILMYKKLT | 0.587 s⁻¹ | 1000 µM
21 | SEQ ID NO: 375: GAT polypeptide (protein, 4B_2H7, GAT polypeptide) MIEVKPINAEDTYEIRHRILRPNQPLEACMYETDLLGGTFHLGGYYRGKLISIASFHQAEHSELEGQKQYQLRGMATLEGYREQKAGSTLIRHAEELLRKKGADLLWCNARTSASGYYKKLGFSEQGGVYGIPPIGPHILMYKKLT | 0.45 s⁻¹ | 6200 µM
